Reference: US20210324359A1, “USE OF GRAM-NEGATIVE LYSIN-ANTIMICROBIAL PEPTIDE (AMP) POLYPEPTIDE CONSTRUCTS IN TREATING ENDOCARDITIS” (priority 2020, published 2021)

B1: GN93: lysin-AMP construct: cationic peptide (SEQ ID NO: 120) and linker N-terminal to GN14 lysin (SEQ ID NO: 62) (protein)
chain: MKFFKFFKFFKAGAGAGAGAGAGAGAGASNNELPWVAEARKYIGLREDTSKTSHNPKLLAMLDRMGEFSNESRAWWHDDETPWCGLFVGYCLGVAGRYVVREWYRARAWEAPQLTKLDRPAYGALVTFTRSGGGHVGFIVGKDARGNLMVLGGNQSNAVSIAPFAVSRVTGYFWPSFWRNKTAVKSVPFEERYSLPLLKSNGELSTNEA
B2: GN80: dispersin B-like molecule (SEQ ID NO: 214) (protein, listed as Staphylococcus sciuri)
chain: MENIQKGITVDIARKSYSLETLKTIVKHIHDHNGQYLQLHFSDDENYAIESEYFDRKSFSNPYYLTKTEVKSLIEYSNDLNVMVIPDMDFPSHSKAFLSLIKQNDKSLYQEIISDYSDNTLDFFSNRKAVDVTNRQIDEITELFKQPQFAEQQRIVLGGDEVAGGGAHQNSFIEYMNQIGDYAFQQGYEPQMWNDMVTHEGVKSLNNHYSILYWKQNEDNKSNLTVEDFDKYYFDVYNYNYYSLYFLPSKQFSQDDINEQAEYIGWAYAYNKFYYNKNPYSEVNSQNVKGSALSFWGEHATDMTQEELINQEVPLIKVYFNLKK
B3: GN333: lysin obtained from Delftia sp. (SEQ ID NO: 28) (protein, listed as Delftia sp.)
chain: MALTEQDFQSAADDLGVDVASVKAVTKVESRGSGFLLSGVPKILFERHWMFKLLKRKLGRDPEINDVCNPKAGGYLGGQAEHERLDKAVKMDRDCALQSASWGLFQIMGFHWEALGYASVQAFVNAQYASEGSQLNTFVRFIKTNPAIHKALKSKDWAEFARRYNGPDYKKNNYDVKLAEAYQSFK
B4: GN217: GN37 lysin with amino acid substitution R79H (SEQ ID NO: 8) (protein)
chain: MTYTLSKRSLDNLKGVHPDLVAVVHRAIQLTPVDFAVIEGLRSVSRQKELVAAGASKTMNSRHLTGHAVDLAAYVNGIHWDWPLYDAIAVAVKAAAKELGVAIVWGGDWTTFKDGPHFELDRSKYR
B5: GN431: lysin obtained from Dickeya phage phiD3 (SEQ ID NO: 64) (protein)
chain: MAILKLGNRGTEVKALQDSLNKIGFTLVADGIFGKATENAVKTVQAGAGLVIDGIVGPKTSYAIRNAGEAHQDHLTEADLIEAANQLGVDLASVKAVNQVESRGTGFTKSGKIKTLFERHIMYKKLMAKFGQARANAMGQMYPTLVSPVAGGYTGGDAELDRLHAAINIDEDCAYESASYGLFQIMGFNCQVCGYANAKEMFNDFLTGERAHLMAFVKFIKADAKLWQALKDKNWAEFARRYNGPAYTKNQYDTKLAAAYNSFN
modifications: Dickeya phage phiD3
B6: GN83: AMP OBPgpLYS fused to the N-terminus of lysin GN4 (SEQ ID NO: 216) (protein)
chain: MKNSEKNASIIMSIQRTLASLSLYGGRIDGLFGEKCRGAIILMLNKVYPNFSTNKLPSNTYEAESVFTFLQTALAGVGLYTITIDGKWGGTSQGAIDALVKSYRQITEAERAGSTLPLGLATVMSTSQRGIDLIKSFEGLRLSAYQDSVGVWTIGYGTTRGVTRYMTITVEQAERMLSNDIQRFEPELDRLAKVPLNQNQWDALMSFVYNLGAANLASSTLLKLLNKGDYQGAADQFPRWVNAGGKRLDGLVKRRAAERALFLEPLS
modifications: OBG_GN4_2 (Lyz+C-term)
B7: GN76: lysin obtained from Acinetobacter phage vB_AbaP_CEB1 (SEQ ID NO: 203) (protein)
chain: MILTKDGFGIIRNELFGGKLDQTQVDAINFIVEKATESGLSYPEAAYLLATIYHETGLPSGYRTMQPIKEAGSDNYLRSKKYYPYIGYGYVQLTWKENYGRIGKLIGIDLIKNPEKALEPLIAIQIAIKGMLNGWFTGVGFRRKRPVSKYNKQQYIAARNIINGKDKAELIAKYAIIFERALRSL
modifications: Acinetobacter phage vB_AbaP_CEB1
B8: GN122: lysin obtained from Pseudomonas putida strain PA14H7 (SEQ ID NO: 218) (protein, listed as Pseudomonas putida)
chain: MSIFSFVKEAGEKLIDLLTPGNANASEQLKEHVSKVGLGNPNIQTTVEGSKVTVTGEVASQEEKEKILLALGNIAGVESVDDQITVTGPLVAAARFVVVKKGDTLSAISLAVYGNANQYNKIFEANKPLLSHPDKIYPGQTLRIPE
B9: GN357: lysin-AMP construct: TAGGTAGG linker and RR12Whydro C-terminal to GN316 lysin (SEQ ID NO: 38) (protein)
chain: MAILKIGSKGLEVKNLQTSLNKIGFNLVADGIFGKATDNAVRAVQAGAGLVVDGIAGPKTMYAIRNAGESHQDHLTEADLIDAARELSVDLASIKAVNQVESRGTGFTKSGKIKTLFERHIMYKKLNAKFGQAKANALAQLYPTLVNAKAGGYTGGDAELERLHGAIAIDKDCAYESASYGLFQIMGFNCVICGYDNAEEMFNDFLTGERAQLMAFVKFIKADANLWKALKDKNWAEFARRYNGPAYAQNQYDTKLAAAYKSFSTAGGTAGGRRLIRLWLRLLR
B10: GN329: lysin, SEQ ID NO: 26 (protein)
chain: MITDREYQQAAEMLGVDVPAIKAVTKVEAPVGGFQPTGEPTILYERHQMYRQLQAKGLPTEGHPPDLVNKVAGGYGKYSEQHAKLARAVKIDRDSALESCSWGMFQIMGYHWKLMGYPTLQAFVNAMYASEGAQMDAFCRFIKAQPTTHAALKAHDWAKFARLYNGPGYAKNKYDVKLEKAYAEASG
modifications: Pseudomonas phage KPP10

What was measured:
[1] = tested on: biofilms formed by P. aeruginosa strain ATCC 17646; conditions: strain ATCC 17646 biofilm
Method: Biofilms are then washed and treated with e.g., a 2-fold dilution series of the lysin in TSBg at e.g., 37° C. for 24 hours. After treatment, wells are washed, air-dried at e.g., 37° C. and stained with e.g., 0.05% crystal violet for 10 minutes.

[2] = tested on: P. aeruginosa strain WC-453; test: Time-kill assay in HEPES or CAA with 25% human serum (Tables 7, 8); format: cell-based, Pseudomonas aeruginosa; conditions: for bactericidal activity (CFU decrease of 3-Log10, 3 hours after the addition of lysin): 10 μg/mL, enumerated lysins in CAA/HuS, general statement for HEPES and CAA/HuS; for HEPES (Log10 CFU/mL), 1 hr / HEPES (Log10 CFU/mL), 3 hr: 25 mM HEPES pH 7.4; for HEPES (Log10 CFU/mL), 1 hr / HEPES (Log10 CFU/mL), 3 hr / CAA/HuS (Log10 CFU/mL), 1 hr / CAA/HuS (Log10 CFU/mL), 3 hr: lysin 10 μg/ml, WC-453; for CAA/HuS (Log10 CFU/mL), 1 hr / CAA/HuS (Log10 CFU/mL), 3 hr: CAA + 25% human serum
Method: Exponential phase bacteria were then pelleted and resuspended in 1/5 culture volume of 25 mM HEPES, pH 7.4 before a final adjustment to an optical density corresponding to a McFarland value of 0.5. […] All treatments were incubated at 37° C. with aeration. At time points before the addition of lysin (or buffer control) and at 1 hour and 3 hours intervals thereafter, culture samples were removed for quantitative plating on CAA agar plates.

P. aeruginosa = test: MIC, modified CLSI broth microdilution in CAA medium without or with […] human serum (Table 4); format: cell-based, Pseudomonas aeruginosa; conditions: for CAA MIC: CAA medium, no human serum; for CAA/HuS MIC: CAA supplemented with […] human serum; on CAA/HuS MIC: CAA supplemented with 2.5% human serum
Excerpt: 2015. […] Clinical and Laboratory Standards Institute, Wayne, Pa.

[3] = tested on: carbepenam-resistant clinical isolate WC-453; test: MIC in CAA without or with 25% human serum (Table 5); format: cell-based, Pseudomonas aeruginosa; set-up: CAA MIC: unit not given here; conditions: for CAA/HuS MIC: CAA supplemented with 25% human serum
Method: MIC values were determined using a modification of the standard broth microdilution reference method defined by the Clinical and Laboratory Standards Institute (CLSI), CLSI. […] Methods for Dilution Antimicrobial Susceptibility Tests for Bacteria That Grow Aerobically; Approved Standard-10th Edition. Clinical and Laboratory Standards Institute, Wayne, Pa.

[4] = tested on: Pseudomonas aeruginosa strain CFS-1292 (meropenem resistant); conditions: strain CFS-1292; no added cations
Method: The activity of selected GN lysins and constructs in the presence of divalent cations was evaluated, and the impact of divalent cations at physiological concentrations was examined in the MIC assay format.

Molecule | MBEC [1] [µg/mL] | bactericidal activity (CFU decrease of 3-Log10, 3 hours after the addition of lysin) [2] | HEPES (Log10 CFU/mL), 1 hr [2] [Log10 CFU/mL] | HEPES (Log10 CFU/mL), 3 hr [2] [Log10 CFU/mL] | CAA/HuS (Log10 CFU/mL), 1 hr [2] [Log10 CFU/mL] | CAA/HuS (Log10 CFU/mL), 3 hr [2] [Log10 CFU/mL] | CAA MIC (P. aeruginosa) [µg/mL] | CAA/HuS MIC (P. aeruginosa) [µg/mL] | activity in CAA supplemented with human serum (25%) [3] | CAA MIC [3] | CAA/HuS MIC [3] | MIC in 25% CAA [4] [µg/mL] | effect of the structural modification on activity (as assessed by MIC) versus the parent lysin (P. aeruginosa; CAA with and without human serum, parent GN316 or GN37)
B1 | 0.125 | bactericidal activity | 6.0 | <3.7 | 6.6 | <3.7 | 128000 | 8000 | active | 128 | 8 | – | –
B2 | 0.125 | – | 7.7 | 6.7 | 6.7 | 7.0 | – | – | – | – | – | – | –
B3 | 1 | bactericidal activity | – | – | 4.9 | <3.7 | 8000 | 60 | – | – | – | 8 | –
B4 | 0.5 | – | – | – | – | – | 4000 | 125 | – | – | – | – | improves its potency over GN37 both in the absence and presence of human serum
B5 | 1 | bactericidal activity | – | – | 5.8 | <3.7 | 8000 | 62.5 | – | – | – | 2 | –
B6 | 1 | bactericidal activity | <3.7 | <3.7 | 5.7 | <3.7 | – | – | repressed | >128 | >128 | – | –
B7 | 0.125 | bactericidal activity | <3.7 | <3.7 | 5.7 | <3.7 | – | – | active | 64 | 8 | – | –
B8 | 1 | – | 7.7 | 5.4 | 6.7 | 6.7 | – | – | active | 2 | 2 | – | –
B9 | 0.5 | bactericidal activity | – | – | 5.0 | <3.7 | 16000 | 250 | – | – | – | 4 | –
B10 | 0.5 | bactericidal activity | – | – | 4.4 | <3.7 | 4000 | 250 | – | – | – | 4 | –
